In IntAct's records for PubMed 20869963:

B1: Protein Rex (Human T-cell leukemia virus 1 (strain Japan ATK-1 subtype A)), P0C205 (parent)
chain: MPKTRRRPRRSQRKRPPTPWPTSQGLDRVFFSDTQSTCLETVYKATGAPSLGDYVRPAYIVTPYWPPVQSIRSPGTPSMDALSAQLYSSLSLDSPPSPPREPLRPSRSLPRQSLIQPPTFHPPSSRPCANTPPSEMDTWNPPLGSTSQPCLFQTPDSGPKTCTPSGEAPLSACTSTSFPPPSPGPSCPT

Variants of: B1
Details: with dicer_human DICER1, Q9UPY3

Row | Variant | effect of a mutation on the interaction
1 | R5D | decreasing interaction
2 | R6D | decreasing interaction
3 | R7D | decreasing interaction

Variants of: B1
Details: with dicer_human DICER1, Q9UPY3
Remark: another data set of the same source

Row | Variant | effect of a mutation on the interaction
4 | L90A | decreasing interaction
5 | L92A | decreasing interaction

Variants of: B1
Details: with dicer_human DICER1, Q9UPY3
Remark: another data set of the same source

Row | Variant | effect of a mutation on the interaction
6 | Y64D | disrupting interaction
7 | W65L | disrupting interaction

Variants of: B1
Details: with dicer_human DICER1, Q9UPY3
Remark: another data set of the same source

Row | Variant | effect of a mutation on the interaction
8 | T119D | disrupting interaction
9 | F120L | disrupting interaction
10 | H121L | disrupting interaction
